Series [1] is described as follows: αIIbβ3 cell surface expression, flow cytometry. The conditions noted are these: glycan lost; control: wild-type β3 with αIIb. On the technique in general: In flow cytometry, cells or beads pass a laser one at a time.
A short description of series [2]: eptifibatide-induced mAb binding, flow cytometry. The conditions noted are these: glycan lost; control: wild-type β3 with αIIb.
Series [3] is described as follows: surface expression by mAbs 10E5, AP2, AP3, flow cytometry. The conditions noted are these: glycan lost; control: wild-type αIIbβ3.
Series [4] in a line: αVβ3 cell surface expression, flow cytometry. The following applies: glycan lost; control: wild-type αV with β3.

B1: integrin β3 subunit: β3-N320Q-N559Q (protein)
parent chain: MRARPRPRPLWATVLALGALAGVGVGGPNICTTRGVSSCQQCLAVSPMCAWCSDEALPLGSPRCDLKENLLKDNCAPESIEFPVSEARVLEDRPLSDKGSGDSSQVTQVSPQRIALRLRPDDSKNFSIQVRQVEDYPVDIYYLMDLSYSMKDDLWSIQNLGTKLATQMRKLTSNLRIGFGAFVDKPVSPYMYISPPEALENPCYDMKTTCLPMFGYKHVLTLTDQVTRFNEEVKKQSVSRNRDAPEGGFDAIMQATVCDEKIGWRNDASHLLVFTTDAKTHIALDGRLAGIVQPNDGQCHVGSDNHYSASTTMDYPSLGLMTEKLSQKNINLIFAVTENVVNLYQNYSELIPGTTVGVLSMDSSNVLQLIVDAYGKIRSKVELEVRDLPEELSLSFNATCLNNEVIPGLKSCMGLKIGDTVSFSIEAKVRGCPQEKEKSFTIKPVGFKDSLIVQVTFDCDCACQAQAEPNSHRCNNGNGTFECGVCRCGPGWLGSQCECSEEDYRPSQQDECSPREGQPVCSQRGECLCGQCVCHSSDFGKITGKYCECDDFSCVRYKGEMCSGHGQCSCGDCLCDSDWTGYYCNCTTRTDTCMSSNGLLCSGRGKCECGSCVCIQPGSYGDTCEKCPTCPDACTFKKECVECKKFDRGALHDENTCNRYCRDEIESVKELKDTGKDAVNCTYKNEDDCVVRFQYYEDSSGKSILYVVEEPECPKGPDILVVLLSVMGAILLIGLAALLIWKLLITIHDRKEFAKFEEERARAKWDTANNPLYKEATSTFTNITYRGT
With B1, in series [1], the expression_or_secretion result was “decreases”.

B2: integrin β3 subunit: β3-N320R (protein)
parent chain: MRARPRPRPLWATVLALGALAGVGVGGPNICTTRGVSSCQQCLAVSPMCAWCSDEALPLGSPRCDLKENLLKDNCAPESIEFPVSEARVLEDRPLSDKGSGDSSQVTQVSPQRIALRLRPDDSKNFSIQVRQVEDYPVDIYYLMDLSYSMKDDLWSIQNLGTKLATQMRKLTSNLRIGFGAFVDKPVSPYMYISPPEALENPCYDMKTTCLPMFGYKHVLTLTDQVTRFNEEVKKQSVSRNRDAPEGGFDAIMQATVCDEKIGWRNDASHLLVFTTDAKTHIALDGRLAGIVQPNDGQCHVGSDNHYSASTTMDYPSLGLMTEKLSQKNINLIFAVTENVVNLYQNYSELIPGTTVGVLSMDSSNVLQLIVDAYGKIRSKVELEVRDLPEELSLSFNATCLNNEVIPGLKSCMGLKIGDTVSFSIEAKVRGCPQEKEKSFTIKPVGFKDSLIVQVTFDCDCACQAQAEPNSHRCNNGNGTFECGVCRCGPGWLGSQCECSEEDYRPSQQDECSPREGQPVCSQRGECLCGQCVCHSSDFGKITGKYCECDDFSCVRYKGEMCSGHGQCSCGDCLCDSDWTGYYCNCTTRTDTCMSSNGLLCSGRGKCECGSCVCIQPGSYGDTCEKCPTCPDACTFKKECVECKKFDRGALHDENTCNRYCRDEIESVKELKDTGKDAVNCTYKNEDDCVVRFQYYEDSSGKSILYVVEEPECPKGPDILVVLLSVMGAILLIGLAALLIWKLLITIHDRKEFAKFEEERARAKWDTANNPLYKEATSTFTNITYRGT
Consider B2, for which the structure_or_conformation entry in series [2] is listed as “decreases”. In series [3], the expression_or_secretion entry is given as “no change”.

B3: integrin β3 subunit: β3-N320S (protein)
parent chain: MRARPRPRPLWATVLALGALAGVGVGGPNICTTRGVSSCQQCLAVSPMCAWCSDEALPLGSPRCDLKENLLKDNCAPESIEFPVSEARVLEDRPLSDKGSGDSSQVTQVSPQRIALRLRPDDSKNFSIQVRQVEDYPVDIYYLMDLSYSMKDDLWSIQNLGTKLATQMRKLTSNLRIGFGAFVDKPVSPYMYISPPEALENPCYDMKTTCLPMFGYKHVLTLTDQVTRFNEEVKKQSVSRNRDAPEGGFDAIMQATVCDEKIGWRNDASHLLVFTTDAKTHIALDGRLAGIVQPNDGQCHVGSDNHYSASTTMDYPSLGLMTEKLSQKNINLIFAVTENVVNLYQNYSELIPGTTVGVLSMDSSNVLQLIVDAYGKIRSKVELEVRDLPEELSLSFNATCLNNEVIPGLKSCMGLKIGDTVSFSIEAKVRGCPQEKEKSFTIKPVGFKDSLIVQVTFDCDCACQAQAEPNSHRCNNGNGTFECGVCRCGPGWLGSQCECSEEDYRPSQQDECSPREGQPVCSQRGECLCGQCVCHSSDFGKITGKYCECDDFSCVRYKGEMCSGHGQCSCGDCLCDSDWTGYYCNCTTRTDTCMSSNGLLCSGRGKCECGSCVCIQPGSYGDTCEKCPTCPDACTFKKECVECKKFDRGALHDENTCNRYCRDEIESVKELKDTGKDAVNCTYKNEDDCVVRFQYYEDSSGKSILYVVEEPECPKGPDILVVLLSVMGAILLIGLAALLIWKLLITIHDRKEFAKFEEERARAKWDTANNPLYKEATSTFTNITYRGT
As to B3, the expression_or_secretion entry in series [1] was “decreases”.

B4: integrin αV subunit: αV-N950Q (protein)
parent chain: MAFPPRRRLRLGPRGLPLLLSGLLLPLCRAFNLDVDSPAEYSGPEGSYFGFAVDFFVPSASSRMFLLVGAPKANTTQPGIVEGGQVLKCDWSSTRRCQPIEFDATGNRDYAKDDPLEFKSHQWFGASVRSKQDKILACAPLYHWRTEMKQEREPVGTCFLQDGTKTVEYAPCRSQDIDADGQGFCQGGFSIDFTKADRVLLGGPGSFYWQGQLISDQVAEIVSKYDPNVYSIKYNNQLATRTAQAIFDDSYLGYSVAVGDFNGDGIDDFVSGVPRAARTLGMVYIYDGKNMSSLYNFTGEQMAAYFGFSVAATDINGDDYADVFIGAPLFMDRGSDGKLQEVGQVSVSLQRASGDFQTTKLNGFEVFARFGSAIAPLGDLDQDGFNDIAIAAPYGGEDKKGIVYIFNGRSTGLNAVPSQILEGQWAARSMPPSFGYSMKGATDIDKNGYPDLIVGAFGVDRAILYRARPVITVNAGLEVYPSILNQDNKTCSLPGTALKVSCFNVRFCLKADGKGVLPRKLNFQVELLLDKLKQKGAIRRALFLYSRSPSHSKNMTISRGGLMQCEELIAYLRDESEFRDKLTPITIFMEYRLDYRTAADTTGLQPILNQFTPANISRQAHILLDCGEDNVCKPKLEVSVDSDQKKIYIGDDNPLTLIVKAQNQGEGAYEAELIVSIPLQADFIGVVRNNEALARLSCAFKTENQTRQVVCDLGNPMKAGTQLLAGLRFSVHQQSEMDTSVKFDLQIQSSNLFDKVSPVVSHKVDLAVLAAVEIRGVSSPDHVFLPIPNWEHKENPETEEDVGPVVQHIYELRNNGPSSFSKAMLHLQWPYKYNNNTLLYILHYDIDGPMNCTSDMEINPLRIKISSLQTTEKNDTVAGQGERDHLITKRDLALSEGDIHTLGCGVAQCLKIVCQVGRLDRGKSAILYVKSLLWTETFMNKENQNHSYSLKSSASFNVIEFPYKNLPIEDITNSTLVTTNVTWGIQPAPMPVPVWVIILAVLAGLLLLAVLVFVMYRMGFFKRVRPPQEEQEREQLQPHENGEGNSET
As for B4, in series [4], the expression_or_secretion result was “decreases”.

B5: integrin αV subunit: αV-N458Q (protein)
parent chain: MAFPPRRRLRLGPRGLPLLLSGLLLPLCRAFNLDVDSPAEYSGPEGSYFGFAVDFFVPSASSRMFLLVGAPKANTTQPGIVEGGQVLKCDWSSTRRCQPIEFDATGNRDYAKDDPLEFKSHQWFGASVRSKQDKILACAPLYHWRTEMKQEREPVGTCFLQDGTKTVEYAPCRSQDIDADGQGFCQGGFSIDFTKADRVLLGGPGSFYWQGQLISDQVAEIVSKYDPNVYSIKYNNQLATRTAQAIFDDSYLGYSVAVGDFNGDGIDDFVSGVPRAARTLGMVYIYDGKNMSSLYNFTGEQMAAYFGFSVAATDINGDDYADVFIGAPLFMDRGSDGKLQEVGQVSVSLQRASGDFQTTKLNGFEVFARFGSAIAPLGDLDQDGFNDIAIAAPYGGEDKKGIVYIFNGRSTGLNAVPSQILEGQWAARSMPPSFGYSMKGATDIDKNGYPDLIVGAFGVDRAILYRARPVITVNAGLEVYPSILNQDNKTCSLPGTALKVSCFNVRFCLKADGKGVLPRKLNFQVELLLDKLKQKGAIRRALFLYSRSPSHSKNMTISRGGLMQCEELIAYLRDESEFRDKLTPITIFMEYRLDYRTAADTTGLQPILNQFTPANISRQAHILLDCGEDNVCKPKLEVSVDSDQKKIYIGDDNPLTLIVKAQNQGEGAYEAELIVSIPLQADFIGVVRNNEALARLSCAFKTENQTRQVVCDLGNPMKAGTQLLAGLRFSVHQQSEMDTSVKFDLQIQSSNLFDKVSPVVSHKVDLAVLAAVEIRGVSSPDHVFLPIPNWEHKENPETEEDVGPVVQHIYELRNNGPSSFSKAMLHLQWPYKYNNNTLLYILHYDIDGPMNCTSDMEINPLRIKISSLQTTEKNDTVAGQGERDHLITKRDLALSEGDIHTLGCGVAQCLKIVCQVGRLDRGKSAILYVKSLLWTETFMNKENQNHSYSLKSSASFNVIEFPYKNLPIEDITNSTLVTTNVTWGIQPAPMPVPVWVIILAVLAGLLLLAVLVFVMYRMGFFKRVRPPQEEQEREQLQPHENGEGNSET
Take B5: the expression_or_secretion result in series [4] was “no change”.

B6: integrin αV subunit: αV-N943Q (protein)
parent chain: MAFPPRRRLRLGPRGLPLLLSGLLLPLCRAFNLDVDSPAEYSGPEGSYFGFAVDFFVPSASSRMFLLVGAPKANTTQPGIVEGGQVLKCDWSSTRRCQPIEFDATGNRDYAKDDPLEFKSHQWFGASVRSKQDKILACAPLYHWRTEMKQEREPVGTCFLQDGTKTVEYAPCRSQDIDADGQGFCQGGFSIDFTKADRVLLGGPGSFYWQGQLISDQVAEIVSKYDPNVYSIKYNNQLATRTAQAIFDDSYLGYSVAVGDFNGDGIDDFVSGVPRAARTLGMVYIYDGKNMSSLYNFTGEQMAAYFGFSVAATDINGDDYADVFIGAPLFMDRGSDGKLQEVGQVSVSLQRASGDFQTTKLNGFEVFARFGSAIAPLGDLDQDGFNDIAIAAPYGGEDKKGIVYIFNGRSTGLNAVPSQILEGQWAARSMPPSFGYSMKGATDIDKNGYPDLIVGAFGVDRAILYRARPVITVNAGLEVYPSILNQDNKTCSLPGTALKVSCFNVRFCLKADGKGVLPRKLNFQVELLLDKLKQKGAIRRALFLYSRSPSHSKNMTISRGGLMQCEELIAYLRDESEFRDKLTPITIFMEYRLDYRTAADTTGLQPILNQFTPANISRQAHILLDCGEDNVCKPKLEVSVDSDQKKIYIGDDNPLTLIVKAQNQGEGAYEAELIVSIPLQADFIGVVRNNEALARLSCAFKTENQTRQVVCDLGNPMKAGTQLLAGLRFSVHQQSEMDTSVKFDLQIQSSNLFDKVSPVVSHKVDLAVLAAVEIRGVSSPDHVFLPIPNWEHKENPETEEDVGPVVQHIYELRNNGPSSFSKAMLHLQWPYKYNNNTLLYILHYDIDGPMNCTSDMEINPLRIKISSLQTTEKNDTVAGQGERDHLITKRDLALSEGDIHTLGCGVAQCLKIVCQVGRLDRGKSAILYVKSLLWTETFMNKENQNHSYSLKSSASFNVIEFPYKNLPIEDITNSTLVTTNVTWGIQPAPMPVPVWVIILAVLAGLLLLAVLVFVMYRMGFFKRVRPPQEEQEREQLQPHENGEGNSET
For the protein B6, in series [4], the expression_or_secretion result was “decreases”.

The record behind these values is paper PMC5498496.
